In a protein production outcome set (Wang et al. 2014):

test: label from the status in PepcDB records

Row | Sequence | protein production
1 | MFDQYRKTILAGAVALTCGLTAASTFAAGFQPAQPAGKLGAVVVDPYGNAPLTALVELDSHIISDVKVTVHGKGEKGVPVTYTVGKESLETYDGIPIFGLYQKFANNVTVEYKENGKAMKDDYVVQTSAIVNHYMDNRSISDLQQTKVIKVAPGFEDRLYLVNTHTFTPQGAEFHWHGEKDKNAGILDAGPAGGALPFDIAPYTFVVDTQGEYRWWLDQDTFYNGHDMNINKRGYLMGIRETPRGTFTAVQGQHWYEFDMMGQVLADHKLPRGFLDASHESIETVNGTVLLRVGKRDYRKEDGIHVHTIRDQIIEVDKSGRVVDVWDLTKILDPMRDALLGALDAGAVCVNVDLAHAGQQAKLEPDTPYGDALGVGAGRNWAHVNSIAYDAKDDSIILSSRHQGIVKIGRDKQVKWILAPSKGWNKQLASKLLKPVDDHGKPLTCDENGKCKDTDFDFTYTQHTAWLSSKGTLTVFDNGDGRGLEQPALPTMKYSRFVEYKIDEKKGTVQQVWEYGKERGYDFYSPITSVVEYQKDRDTMFGFGGSINLFDVGKPTVGKLNEIDYKTKEVKVEIDVLSDKPNQTHYRALLVHPTQMFK | failed
2 | MFDWLTNSTAIIIILPVVVFVLTLFLARFKFRKPQRRIMLAADLSTIFLIIAVHFFMIVIFNRSFLLYILLFLFILGIVIVVLAAKKEGEIQFRKILRGYWRLCFFIFALLYVVLYLYGIIYSLILLF | failed
3 | MFELFQYDFMRNALLAATAISIFSPLLGVFLVLRRQSLMSDTLSHVSLAGVAFGVLLSWNPTITTLITVVIAAVFLEYLRTIYHNYMEIATAILMSAGLAIALLILNSSKGATSVSLEQYLFGSIITISLSQVIMLFVLAAVVLLGFILFLRPLYVMTFDEDTAFVDGLPVRWISIAFNIVTGVAIALMIPAAGALLVSAIMVLPASIAMRLGKSFKAVLFISAIVSFIGLNAGLIASYYMDAPASAAITLIFIVLFLVTSSLKRLIRA | failed
4 | MFETFFSTYLSSTIRFLFLLAPFFVVTMFLALTRGLSMAEKTSIIRRACVSAFILGVILFFAGPLLFNAIGITLNSFRIGAGSLLFLTAISLVNSGTRNHATGLPEEDRDDIAVVPLAIPVMIGPATIGAIMVYGAELKAVPEVAGGLLGLVSGLMILAGLLRLSGYLEKALGKTGLNIMSKISGLILSAMAAEIVLTGIAGFIASTSGA | failed
5 | MFFGLTLGTAVATGGRDSTLKRAAPQASCMDVHNVTAEAETFTCNAYLATGEQTTLVDAGAMRGVVDVIREHADALDAVVLTHQHGDHVQRLDTVLDAFDAPLYAYGSHPRRDHALADGDTLTVGDEECEVVYTPGHADDHVSLVSESALFSGDVVVHDDGAFDDGSFGRTDRPGQSRERLIESIERILDRMPAGVEHMYSGHGGVFHGDVREVVERALERAERREPKYPDD | failed
6 | MFFKQFYDNHLSQASYLVGCQRTGEAIIIDPVRDLSKYIEVADSEGLTITQATETHIHADFASGIRDVAKRLNANIYVSGEGEDALGYKNMPSKTQFVKHGDIIQVGNVKLEVLHTPGHTPESISFLLTDLGGGSSVPMGLFSGDFIFVGDIGRPDLLEKSVQIKGSTEISAKQMYESVQNIKNLPDYVQIWPGHGAGSPCGKALGAIPISTIGYEKINNWAFNEIDETKFIESLTSNQPAPPHHFAQMKQVNQFGMNLYQSYDVYPSLDNKRVAFDLRSKEAFHGGHTKGTINIPYNKNFINQIGWYLDFEKDIDLIGDKSTVEKAKHTLQLIGFDKVAGYRLPKSGISTQSVHSADMTGKEEHVLDVRNDEEWNNGHLDQAVNIPHGKLLNENIPFNKEDKIYVHCQSGVRSSIAVGILESKGFENVVNIREGYQDFPESLKLEHHHHHH | not failed
7 | MFFNFLIPPNSFSSFPEYVAFVVSLSYALNATLLLLYSRIFGVEVKEKAFIPVTLSFVAIDFTSIQGLRLFVGIPAYLGVVILTSLCILEGLALALTSSLALVNASRRHLAATWIAANVASSGLFMAFVGVS | failed
8 | MFGISISSAILHFVIGGFAVALASIMADKVGGKLGGIIATMPAVYLAAIIALAIDHKGQQLIQMSIHLSTGAIVGIVSCIVTVFFTSIFIGKKNYRSGTVFAILCWFVISVAIFLVRHI | failed
9 | MFGKLLKKEIKELLNLGAIVSVIVVAVLYGSLGNVFKSTVEKSTVGQKVAIVREDTGTIAELAEKALGNMVDIVYAGSDLKEAEEAVKKEKAPAIIVIPKGFSQSLESGEKARLEIVWYLRGTGLSEAVSTGTISSLIESLKVQLASFLLNDPKKAQLLFDPLEIVQHTYLRGSLFKNHSPEAIMNVFYSQNIMIPILIMMLIIMSGSSLISSLAMEKENKTLETLLTMPVKREHIALAKIVGSAIVGLILAGIYMAGFYSYLNSLTQNVQGMGLNFKAVDFLLMGSSLFLSILAGLSLCMLLGMMAKDYRSAQLLTFPISILALVPMIANMIMDFSNLPGVLKVIVFLIPFSHPIMSPKLAFYGDYGLIVSGILYLLIFSIVTTVFVFRIFNSDYVVLGWQREKRLKFFSR | failed
10 | MFGMTLVNIFVPKLNLYHFVVGVIYLFPMIVIGFKIVKNRNITGLPLFICSGIVGVWAILLHMKMNLGHDYEFFSGPIQETVMLILLLVAVPLSYYVFACSVGCKDTRNMKALKIFPVVAFFIIVITEILGISYYGMANYVLLFSFLLLIGPLLGGLYIWEIMSNIQFKNYTT | failed
11 | MFGQWEFDVSPTGGIAVASTEVEHFAGSQHEVDTAEVPSAAWGWSRIDHRTWHIVGLCIFGFLLAMLRGNHVGHVEDWFLITFAAVVLFVLARDLWGRRRGWIR | failed
12 | MFIEALILLCLVGAAAVFIAPDRYAHKLALGLSVPPLVVSLYMYAAFDGSGNALLGGDIAYETATEWLQLGQYTVSYHVGLDGISLPLVVLSTVLTTLAILSAWTPIDERQSEFYGLVLLLEGSLIGVFAALDFILWFVFWEAVLIPMYLLIGVWGGPRRKYAAIKFFVYTNIASLVMFIGYFALVFGLGDAVSSTGMPAVAQALRADQLGYLGTAAVGIGPDMLAMAAFLAMFVGFAVKVPVVPFHTWLPDAHVEAPTPVSVLLAGVLLKMGTYALLRFNFTMLPDQVETFAVPIALIAIISILYGALLALAQKDLKRIVAYSSVSSMGYVILGLVAYTVYGVGGATFQMIAHGLISGLLFMTVGVFYNATHTRMVGDMGGLADRMPVTAGIFIAGAFGYMGLPLMAGFMAELFVFIGAFQSAILPYAPVITAAGMFGIVVVAGYLLWAMQRSLFGPFRLETDYELERAPVHDIVPLLTLVALIIALGVAPDLIFEMIRDATHSVIDYDFGGDL | failed
13 | MFIKAERLLIRKFEFKDWEAVHEYTSDSDVMKYIPEGVFTEEDTRNFVNKNMGENAKNFPVILIGENILVGHIVFHKYFGEHTYEIGWVFNPKYFNKGYASEAAQATLKYGFKEMKLHRIIATCQPENTPSYRVMEKIGMRREGYFKKCIPHGNEWWDEYYYAILEEE | not failed
14 | MFIKVKLPWDVTIPAEDMDTGLMLQRAIVIRLLEAFSKEKATKDLGYLITPTILENIGEGKIKEQTGEIQFPVVFNGICFKMFKGEIVHGVVHKVHKTGVFLKSGPYEIIYLSHMKMPGYEFIPGENPFFMNQYMSRIQIGARVRFVVLDTEWREAEKDFMALASIDGDNLGPF | failed
15 | MFIYGHMEKSERKNYLRESREVSYISLALLIISYIVISSIRFSFYLLSIMLIVSLLNFSIYFYMRYKIHARYHKNIDIQGYILEDNSWRYVLSLSVLLTIFIFLEYPFPFIRFYSFILIVNAFVITTWIVSLNGPIIGMLISRSDPLYEPFLYRAMELANAMNINVPDLYILDTRNRIANAFTVSRKESYVFITRLLMNILDVDEVTAVMAHEFAHIKLRHNLKTSIINFAVILFLINIALYGLTLDSFAGIMLPVISIIIYMFFTTFLLNYIKRRNEINADLTAIKYVNPDYLISALHKIENLEIFSRRISDIYLDHPSIDRRISIINRSRSS | failed
16 | MFKIDLFSNKKAVEGFILFQLTIVMISILISYKMAYSMTHIIEQNIIFNIIFGIVGFAVVYFLHEFIHNIMFRVMSKGNKPTYRIKSGLITTHMPNVYFKKWQYMTIMLAPLVIITSVLLVIFSYFAYSSIIFIACFHIGYCVMDMYFLTGLLNKHVQLIEDTEEGIKFYTQAPAPAQEFRTELKS | failed
17 | MFKITPFSTQQHVIIQITDTHLLEDPQQEFVGINPERSFHCVMQHIRQHHAQIDAIIHTGDLAQTPTPATYARYLDFMQSFGVPFFHVPGNHDHPEFFPFHQASPSELSIVVLGNWHVILMNSAVVGQVDGWINDQQIQQLRDHLAAHPDTPTIVACHHHPFDMHSKWIDQHKLKNTPDLLATFKHYPQIRAVLCGHVHQESLHRWEHIDFLSSPSTSVQFKPRSDEFAFDTLPSGYRILRLNSDGQFDSNIHRIENMLQNINTEISGY | failed
18 | MFKKEIILGILCLFAACHSNDEIIEEQESPKNEQQEPKARVDIILSHEEQAMSESTNDFAFQLFKQVCVSENRKTNIFISPFSVSLCLSMSANGANGNTLTEIKKVLGFSSSSMDEVNTYNQKLMSSLLNIDNTTQIGIANSVWINQGFVVKNTFIDINKLKYNAWVESLDFSSASAIATINAWCARNTENRLVDIMDEISPEARLILINALYFKGKWTNPFSKEVTKNDFFTNIDGEQVKVDMMCQEESFRCMNNEKFAIAEFPYGNEAFSMVVVLPVENSSLEESLLWLSNDAWKQCETQMSYQKLQVKMPKFSFKYQKPLNSDMSVLGMKDAFILGLADFRNISASENLYLSSLEQFTYLEVNEEGTESAAITTEVPATSTGDDKDIIHFFMDRPFIFMIKEKSTGLILFMGQVTKL | failed
19 | MFKKRLNKDKINDCYTWEEELPDGSYDMGFHGNLNHMEKGKSGYVTHKQLDKKLEVFKQDLLVELSEKFVTKEEFRAQGKQIKELQIEQKAQGKTLQLILEALQGINKRLDKLESKLEHHHHHH | not failed
20 | MFKKTFSMICCVIFLQGCSQEQEVKKEMTNMETALLAATEKNETNTVISLLKQGANINATDNQGRTPLMIATYKNDVKTAKALIKAGADVNIQDDMKNNPFLYAGAEGYLDILKLTINAGADPTITNRYGGTALIPASEHGYIDVIKELLTRTNIDVNHVNNLGWTALMETIVLSNGNETQQQVIRLLIEHGADVNIPDNDGVTPLEHARAHNFAEIEKILLEGNK | failed
21 | MFLIILIKSLIIGGLVGVGVGAGAARMFHAPTTQGMGAFRTLGELNSCEGDPASHFSFGLGFFFNAWASSVAAGSFTQDVDHRIIPNWGAAALMLKNRNVGETLHDPKKMAISCGIIGMIVVAFLNLTASSVPEALQVTAVKVLVPAANLLVNTVMPVIFWLAAIDAGKKSGFWATIFGGAAQLIMGNAVPGLVLGILIGKGVEESGWNRVTKVMMVAIVALFVLSGFFRGFDMKMIESFHLTVPNWLDMIHNSLSGK | failed
22 | MFLSDPLPAGGDPVTRLTRYVTRELLPPLLAGTLLFTAILSFGYFFISSQWLSGVPVSLIARWIGYQLPDTLVKVLPMAVVLMTVVAFGRMNTERELVAVQAGGIGLGRVTRPAAVVGLLVTALSVWLSLWVAPRANVETRGLYWDALTGAGLSQLVGKTVDLGQGLTLAMQGYDAGARQMQGVRVEKWDKDNFRQGMVVFADAGKFEGNQLSLTGYQVYRVDYAAAAALSGVADNDPAAFREAVQKVFPLVQVPEDRNAALNLDTGLSRKQTLAQYADAIGADAEGWPELITKLTAPGVPQSERDAARVNLNRKLALPFANLVLVLAALPFALRFGRTLGVSLGVALVIAVAYYLLFSVGLTLAGLLPGLPELGVWLANIVFALGGLWLLRRA | failed
